Measurements: article PMC7060200, “Selective Binding of HSC70 and its Co-Chaperones to Structural Hotspots on CFTR” (Scientific Reports, 2020)
Ends that are not written are not given here. * marks the point of attachment. Biotin = O=C1N[C@H]2[C@H](CS[C@H]2CCCCC(=O)*)N1

What was measured:
Conditions in all cases: both partners purified
[1] = molecular target: T1, HSC70 (HSPA8), His-tagged (UniProt P11142 1-646); test: ELISA; competition: 1 μM chaperone mixed with soluble peptide (titrated up to 100 μM, or fixed 100 μM in the screens) and bound to immobilised 1097-L; Kd of the competing peptide from linearised competition curves
T1 construct: HSC70 (HSPA8), the constitutive form of HSP70

[2] = molecular target: T2, DNAJA1 (DJA1), His-tagged (UniProt P31689 1-397); test: as above
T2 construct: DNAJA1, J-domain co-chaperone of HSC70

[3] = molecular target: T3, DNAJA2 (DJA2), His-tagged (UniProt O60884 1-412); test: as above
T3 construct: DNAJA2, J-domain co-chaperone of HSC70

[4] = molecular target: T1, HSC70 (HSPA8), His-tagged; test: ELISA; titration of increasing concentrations of chaperone on immobilised biotinylated peptide; HSC70 with ATP; apparent Kd from linearised binding curves
[5] = molecular target: T2, DNAJA1 (DJA1), His-tagged; test: as above
[6] = molecular target: T3, DNAJA2 (DJA2), His-tagged; test: as above

T1 sequence (P11142 whole entry): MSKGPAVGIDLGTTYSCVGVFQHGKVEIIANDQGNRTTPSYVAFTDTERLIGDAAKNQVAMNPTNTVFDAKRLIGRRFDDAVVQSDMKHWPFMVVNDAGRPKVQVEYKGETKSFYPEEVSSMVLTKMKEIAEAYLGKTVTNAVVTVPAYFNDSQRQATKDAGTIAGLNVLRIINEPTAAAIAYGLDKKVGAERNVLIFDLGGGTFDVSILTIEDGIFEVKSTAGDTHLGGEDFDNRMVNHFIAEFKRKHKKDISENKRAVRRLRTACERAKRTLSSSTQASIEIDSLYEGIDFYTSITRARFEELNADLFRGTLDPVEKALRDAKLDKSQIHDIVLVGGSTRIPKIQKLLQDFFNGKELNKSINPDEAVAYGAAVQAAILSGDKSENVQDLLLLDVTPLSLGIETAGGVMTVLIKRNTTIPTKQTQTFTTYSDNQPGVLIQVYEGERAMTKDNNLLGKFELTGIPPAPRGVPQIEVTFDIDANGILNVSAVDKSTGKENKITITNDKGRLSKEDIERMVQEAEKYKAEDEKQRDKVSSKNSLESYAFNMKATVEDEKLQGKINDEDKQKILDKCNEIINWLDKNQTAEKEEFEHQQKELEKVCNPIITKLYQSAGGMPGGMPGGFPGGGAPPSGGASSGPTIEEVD
T3 sequence (O60884 whole entry): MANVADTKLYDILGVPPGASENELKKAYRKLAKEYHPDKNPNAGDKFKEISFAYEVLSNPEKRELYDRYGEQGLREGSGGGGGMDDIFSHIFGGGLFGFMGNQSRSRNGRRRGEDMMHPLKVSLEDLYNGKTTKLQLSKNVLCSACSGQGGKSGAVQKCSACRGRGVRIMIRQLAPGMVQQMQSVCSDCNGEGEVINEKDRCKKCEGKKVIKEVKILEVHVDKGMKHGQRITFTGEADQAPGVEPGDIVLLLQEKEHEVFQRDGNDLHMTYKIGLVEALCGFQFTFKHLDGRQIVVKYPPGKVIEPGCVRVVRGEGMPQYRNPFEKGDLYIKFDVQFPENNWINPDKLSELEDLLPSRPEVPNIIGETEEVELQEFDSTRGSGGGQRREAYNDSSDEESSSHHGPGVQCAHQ

B1: CFTR peptide 1398-S (peptide, UniProt P13569 1394-1402, looked up)
peptide: DCTVILCEH
notes: source: synthetic peptide (Lifetein, unmodified, >85% purity)
Kd [1]: 0.9 µM | Kd [2]: 18.3 µM | Kd [3]: 4.45 µM

B2: CFTR peptide 469-S (peptide, UniProt P13569 465-473, looked up)
peptide: TSLLMVIMG
notes: as for B1
Kd [1]: 1.56 µM | Kd [3]: 4.82 µM

B3: CFTR peptide 1295-S (peptide, UniProt P13569 1291-1299, looked up)
peptide: QKVFIFSGT
notes: as for B1
Kd [1]: 1.26 µM

B4: CFTR peptide 1293-L, soluble unmodified (peptide, UniProt P13569 1286-1300, looked up)
peptide: FGVIPQKVFIFSGTF
notes: as for B1
Kd [1]: 2.02 µM

B5: CFTR peptide 1403-L, biotinylated (library form) (peptide)
peptide: Biotin-GSGSTVILCEHRIEAMLEC
modifications: cysteine pairing not given here
notes: linker; CFTR, 15-mer numbered by its middle residue 1403, from NBD2; source: synthetic peptide (Mimotopes, PepSet purity)
Kd [4]: 11.1 µM | Kd [5]: 1.49 µM | Kd [6]: 1.19 µM

B6: CFTR peptide 1393-L, soluble unmodified (peptide, UniProt P13569 1386-1400, looked up)
peptide: RTLKQAFADCTVILC
notes: CFTR, 15-mer numbered by its middle residue 1393, from NBD2; source: synthetic peptide (Lifetein, unmodified, >85% purity)
Kd [1]: 1.04 µM | Kd [2]: 15.7 µM | Kd [3]: 1.49 µM

B7: CFTR peptide 1393-L, biotinylated (library form) (peptide)
peptide: Biotin-GSGSRTLKQAFADCTVILC
modifications: cysteine pairing not given here
notes: linker; CFTR, 15-mer numbered by its middle residue 1393, from NBD2; source: synthetic peptide (Mimotopes, PepSet purity)
Kd [4]: 9.06 µM | Kd [5]: 1.5 µM | Kd [6]: 1.12 µM

B8: CFTR peptide 618-S (peptide, UniProt P13569 614-622, looked up)
peptide: DKILILHEG
notes: as for B1
Kd [1]: 3.73 µM

B9: CFTR peptide 17-S (peptide, UniProt P13569 13-21, looked up)
peptide: SKLFFSWTR
notes: CFTR, 9-mer numbered by its central residue 17, from the NT; source: synthetic peptide (Lifetein, unmodified, >85% purity)
Kd [1]: 1.76 µM

B10: CFTR peptide 1100-S (peptide, UniProt P13569 1096-1104, looked up)
peptide: LRWFQMRIE
notes: CFTR, 9-mer numbered by its central residue 1100, L4 side of the NT-L4 interface; source: synthetic peptide (Lifetein, unmodified, >85% purity)
Kd [3]: 8.33 µM

B11: CFTR peptide 1403-L, soluble unmodified (peptide, UniProt P13569 1396-1410, looked up)
peptide: TVILCEHRIEAMLEC
notes: CFTR, 15-mer numbered by its middle residue 1403, from NBD2; source: synthetic peptide (Lifetein, unmodified, >85% purity)
Kd [1]: 2.66 µM | Kd [2]: 9.15 µM | Kd [3]: 0.994 µM
